Laboratory results reported in the Human Domainome abundance scans (Beltran et al. 2025).
± gives the uncertainty stated by the source.

B1: Arginine-glutamic acid dipeptide repeats protein, residues 502 to 543; numbered along this chain, Q9P2R6 (parent)
chain: LKGYACRHCFTTTSKDWHHGGRENILLCTDCRIHFKKYGELP

Variants of: B1
Assay: abundance fitness (aPCA) (normalised: wild type 0, dead -1); higher = more abundant; growth selection in yeast, the domain comes from the species named
Settings: Homo sapiens

Row | Variant | abundance fitness
1 | L41Y | -0.22 ± 0.097
2 | L41W | -0.302 ± 0.038
3 | L41V | -0.246 ± 0.039
4 | P42L | -0.491 ± 0.085
5 | P42G | -0.519 ± 0.12
6 | P42R | -0.654 ± 0.1
7 | P42V | -0.456 ± 0.09
8 | P42Q | -0.349 ± 0.073
9 | P42E | -0.3 ± 0.09
10 | P42A | -0.367 ± 0.048
